The record followed here is patent US20200040059A1.

Test [1] concerns the target T1, CD96 (UniProt P40200).
T1 sequence (looked up): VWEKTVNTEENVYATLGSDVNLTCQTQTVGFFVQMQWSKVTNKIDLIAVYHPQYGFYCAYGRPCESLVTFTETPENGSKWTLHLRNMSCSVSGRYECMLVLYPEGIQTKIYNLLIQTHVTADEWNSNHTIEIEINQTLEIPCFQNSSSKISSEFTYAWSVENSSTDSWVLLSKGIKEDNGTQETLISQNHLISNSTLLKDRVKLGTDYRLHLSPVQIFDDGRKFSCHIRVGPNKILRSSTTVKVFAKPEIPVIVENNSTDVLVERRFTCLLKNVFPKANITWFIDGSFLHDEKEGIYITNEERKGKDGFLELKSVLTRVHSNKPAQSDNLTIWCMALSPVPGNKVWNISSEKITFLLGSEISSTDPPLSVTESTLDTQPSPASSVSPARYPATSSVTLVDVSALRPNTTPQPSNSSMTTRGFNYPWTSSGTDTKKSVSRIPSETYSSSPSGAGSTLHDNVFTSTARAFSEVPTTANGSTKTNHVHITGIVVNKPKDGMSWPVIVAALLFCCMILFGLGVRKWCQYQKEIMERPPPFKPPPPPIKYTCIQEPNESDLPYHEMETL
In words: flow cytometry on CD96-expressing cells. (A flow cytometer gives signals particle by particle.)

In test [2] the target is T2, TIGIT (human) (UniProt Q495A1).
T2 sequence: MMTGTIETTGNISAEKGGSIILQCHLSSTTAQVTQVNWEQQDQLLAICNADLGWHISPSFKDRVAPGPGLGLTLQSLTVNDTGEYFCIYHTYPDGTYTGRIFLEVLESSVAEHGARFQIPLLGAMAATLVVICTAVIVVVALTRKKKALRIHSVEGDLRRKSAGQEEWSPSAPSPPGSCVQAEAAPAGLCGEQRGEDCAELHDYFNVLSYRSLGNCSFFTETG
In words: flow cytometry, transfected cells.

For test [3], the target named is T1, CD96. In words: flow cytometry, cells.
Test [4] concerns the target T3, CD226 (human) (UniProt Q15762).
T3 sequence: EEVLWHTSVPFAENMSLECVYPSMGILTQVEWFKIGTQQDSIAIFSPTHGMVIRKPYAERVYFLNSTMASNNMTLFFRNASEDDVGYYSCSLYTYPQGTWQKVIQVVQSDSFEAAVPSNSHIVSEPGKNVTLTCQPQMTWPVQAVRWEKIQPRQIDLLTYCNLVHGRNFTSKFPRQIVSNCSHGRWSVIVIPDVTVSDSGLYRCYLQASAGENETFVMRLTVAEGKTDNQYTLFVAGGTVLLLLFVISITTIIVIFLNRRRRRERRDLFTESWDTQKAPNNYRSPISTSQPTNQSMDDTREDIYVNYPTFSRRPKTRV
In words: flow cytometry, transfected cells.

The target in test [5] is T1, CD96. As to the kind of experiment: flow cytometry, CD96-expressing cells.
In test [6] the target is T3, CD226 (human). As to the kind of experiment: flow cytometry, CD226-expressing cells.
Test [7] concerns the target T2, TIGIT (human). As to the kind of experiment: flow cytometry, TIGIT-expressing cells.
The target in test [8] is CD28 (human) (UniProt P10747). As to the kind of experiment: flow cytometry, transfected cells.
The target of test [9] is PD-L1 (human) (UniProt Q9NZQ7). In words: flow cytometry, transfected cells.
PD-L1 (human), sequence (Q9NZQ7 19-290 limits assumed): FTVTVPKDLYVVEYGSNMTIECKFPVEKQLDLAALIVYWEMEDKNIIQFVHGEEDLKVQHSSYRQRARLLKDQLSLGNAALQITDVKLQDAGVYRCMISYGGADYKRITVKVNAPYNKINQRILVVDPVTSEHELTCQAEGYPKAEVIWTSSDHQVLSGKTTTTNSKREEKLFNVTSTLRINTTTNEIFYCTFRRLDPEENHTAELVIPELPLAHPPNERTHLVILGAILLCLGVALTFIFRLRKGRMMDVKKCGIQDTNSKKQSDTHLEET
The target in test [10] is human B7-H6 (human) (UniProt Q68D85). In words: flow cytometry, transfected cells.
human B7-H6 (human), sequence (Q68D85 25-454): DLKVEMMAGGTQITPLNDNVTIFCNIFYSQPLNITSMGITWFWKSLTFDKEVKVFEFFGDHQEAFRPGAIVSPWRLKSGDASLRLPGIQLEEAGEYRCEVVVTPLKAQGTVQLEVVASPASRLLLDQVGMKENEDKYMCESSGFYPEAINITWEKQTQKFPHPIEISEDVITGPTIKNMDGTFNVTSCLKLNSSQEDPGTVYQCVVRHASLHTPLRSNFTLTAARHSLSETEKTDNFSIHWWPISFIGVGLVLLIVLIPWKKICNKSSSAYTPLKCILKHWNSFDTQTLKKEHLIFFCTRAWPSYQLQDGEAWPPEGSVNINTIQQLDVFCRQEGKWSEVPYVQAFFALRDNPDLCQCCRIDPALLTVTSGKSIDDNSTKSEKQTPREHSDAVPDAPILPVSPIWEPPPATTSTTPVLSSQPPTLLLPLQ
The target of test [11] is PD-1 on Jurkat/PD-1 cells. As to the kind of experiment: flow cytometry on Jurkat/PD-1 cells, 50 nM.
The target in test [12] is PD-1 on Jurkat/PD-1 cells. In words: flow cytometry, 50 nM; ratio to wild type PD-L1 IgV-Fc.
Test [13] deals with human ICOS as used for the 'ICOS OD' read-out of Table 14 (human). In words: binding read as OD; format not described.
human ICOS as used for the 'ICOS OD' read-out of Table 14 (human), sequence (Q9Y6W8 whole entry): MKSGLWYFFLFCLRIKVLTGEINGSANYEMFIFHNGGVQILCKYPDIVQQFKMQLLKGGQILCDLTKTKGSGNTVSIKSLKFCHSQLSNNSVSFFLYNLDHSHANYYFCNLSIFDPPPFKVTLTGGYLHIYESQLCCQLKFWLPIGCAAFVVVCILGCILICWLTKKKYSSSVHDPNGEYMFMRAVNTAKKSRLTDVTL
Test [14] deals with human CD28, full-length, expressed on transfected Expi293 cells (human) (UniProt P10747). In words: flow cytometry on CD28-expressing Expi293 cells.
For test [15], the target named is PD-1 (Homo sapiens (Human)) (UniProt Q15116). As to the kind of experiment: flow cytometry, Jurkat/PD-1 cells.
PD-1 (Homo sapiens (Human)), sequence (Q15116 21-288 limits assumed, form in doubt): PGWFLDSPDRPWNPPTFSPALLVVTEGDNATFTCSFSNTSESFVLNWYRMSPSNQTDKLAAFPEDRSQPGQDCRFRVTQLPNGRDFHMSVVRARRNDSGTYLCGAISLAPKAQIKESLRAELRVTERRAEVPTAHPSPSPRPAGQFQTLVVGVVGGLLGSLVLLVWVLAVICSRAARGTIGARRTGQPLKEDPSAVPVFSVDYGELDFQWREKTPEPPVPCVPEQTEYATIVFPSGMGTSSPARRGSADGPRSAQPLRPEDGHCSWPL
Test [16] deals with PD-1-Fc. As to the kind of experiment: Fortebio (BLI), PD-1-Fc. On the technique in general: In BLI a coated tip is dipped into the sample, and binding shifts an interference pattern.

CD155 Wild type IgV-Fc, sequence (P15151 24-139 limits assumed): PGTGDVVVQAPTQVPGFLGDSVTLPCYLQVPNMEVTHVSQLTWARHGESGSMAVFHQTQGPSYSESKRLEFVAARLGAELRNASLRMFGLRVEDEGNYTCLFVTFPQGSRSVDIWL
Domain 1: CD86 WT / Domain 2: CD80 WT / Fc (Fc fusion), sequence (chain): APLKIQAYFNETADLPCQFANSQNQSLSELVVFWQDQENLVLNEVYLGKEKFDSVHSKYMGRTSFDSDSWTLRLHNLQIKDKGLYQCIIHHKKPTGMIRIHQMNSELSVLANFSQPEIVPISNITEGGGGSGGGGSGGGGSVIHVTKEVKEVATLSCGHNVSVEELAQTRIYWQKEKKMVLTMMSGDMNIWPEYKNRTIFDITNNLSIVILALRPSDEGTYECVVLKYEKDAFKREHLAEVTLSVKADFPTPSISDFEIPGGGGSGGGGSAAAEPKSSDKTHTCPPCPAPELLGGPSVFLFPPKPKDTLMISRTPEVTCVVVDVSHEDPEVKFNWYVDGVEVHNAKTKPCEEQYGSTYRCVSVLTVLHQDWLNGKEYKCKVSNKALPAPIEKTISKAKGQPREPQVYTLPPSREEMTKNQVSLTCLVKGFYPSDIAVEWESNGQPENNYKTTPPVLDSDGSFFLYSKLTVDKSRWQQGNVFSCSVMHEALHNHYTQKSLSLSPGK
Domain 1: CD80 WT / Domain 2: CD86 WT / Fc (Fc fusion), sequence (chain): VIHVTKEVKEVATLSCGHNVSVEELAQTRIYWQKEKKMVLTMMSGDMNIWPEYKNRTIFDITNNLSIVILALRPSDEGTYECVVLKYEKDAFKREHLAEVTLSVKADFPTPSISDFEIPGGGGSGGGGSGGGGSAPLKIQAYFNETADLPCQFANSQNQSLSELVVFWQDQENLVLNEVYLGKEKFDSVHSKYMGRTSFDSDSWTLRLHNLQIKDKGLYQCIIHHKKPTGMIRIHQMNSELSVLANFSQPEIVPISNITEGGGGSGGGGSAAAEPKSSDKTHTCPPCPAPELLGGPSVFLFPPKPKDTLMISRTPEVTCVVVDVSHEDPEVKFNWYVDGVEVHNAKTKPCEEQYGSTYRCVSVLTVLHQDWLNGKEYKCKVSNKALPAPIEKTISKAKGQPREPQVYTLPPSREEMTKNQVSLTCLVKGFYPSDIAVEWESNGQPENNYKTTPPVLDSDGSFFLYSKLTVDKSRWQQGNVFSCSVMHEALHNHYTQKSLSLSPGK

In the case of “CD112 ECD-Fc (from UniProt Q92692 32-360) (Fc fusion)”, the MFI at 100 nM in test [1] was found to be 1100 MFI.
In the case of “CD112 variant R12W, A46T, K66M, Q79R, N106I, T113A, S118F IgV-Fc (from UniProt Q92692 32-156) (Fc fusion)”, in test [1], the MFI at 100 nM is 4060 MFI.
With “CD155 A81V, L83P IgV-Fc (from UniProt P15151 24-139) (Fc fusion)”, the MFI in [2] amounted to 2910; in test [3] it was 2620.
In the case of “CD155 P18L, L79V, F91S IgV-Fc (from UniProt P15151 24-139) (Fc fusion)”, the MFI stood at 4070 in test [2], 5140 in test [4] and 3280 in test [3].
For “CD155 P18S, F91P IgV-Fc (from UniProt P15151 24-139) (Fc fusion)”, the MFI in [2] amounted to 3220; in [3], 2680.
Take “CD155 P18S, F91S IgV-Fc (from UniProt P15151 24-139) (Fc fusion)”: the MFI in [4] was 409000; in test [3] it was 147000.
Turning to “CD155 P18T, F91S, R94H IgV-Fc (from UniProt P15151 24-139) (Fc fusion)”, the MFI was 2940 in test [2], 3590 in test [4] and 2510 in test [3].
Turning to “CD155 Wild type IgV-Fc (from UniProt P15151 24-139) (Fc fusion)”, the MFI in test [2] was determined as 2720; in test [4] it was 3720; in [3], 3080.
As to “CD155 variant IgV-Fc A13R, D23Y, E37P, S42P, Q62Y, A81E (from UniProt P15151 24-139) (Fc fusion)”, the MFI at 100 nM in test [5] came out at 5760 MFI; in test [6] it was 11700 MFI; in test [7] it was 4160 MFI.
As for “CD155 variant IgV-Fc L79P, L104M (from UniProt P15151 24-139) (Fc fusion)”, the MFI at 100 nM in test [5] was 2890 MFI; in test [6], 8320 MFI; in test [7], 3210 MFI.
The substance “CD155 variant IgV-Fc P18F, T26M, L44V, Q62K, L79P, F91S, L104M, G111D (from UniProt P15151 24-139) (Fc fusion)” displayed an MFI at 100 nM in [5] of 1630 MFI.
In the case of “CD155 variant IgV-Fc P18H, S42G, T45I, S52T, G53R, S54H, V57L, H59E, T61S, S65D, E68G, L104N (Fc fusion)”, the MFI at 100 nM in test [5] came out at 3700 MFI.
For “CD155 variant IgV-Fc P18L, E37S, Q62M, G80S, A81P, G99Y, S112N (from UniProt P15151 24-139) (Fc fusion)”, the figures for the MFI at 100 nM in test [5] and in test [7] were 3340 MFI and 5900 MFI, respectively.
Regarding “CD155 variant IgV-Fc P18S, A47G, L79P, F91S, L104M, T107A, R113W (from UniProt P15151 24-139) (Fc fusion)”, in test [6], the MFI at 11.1 nM came out at 1190 MFI.
Take “CD155 variant IgV-Fc P18S, L79P, L104M, T107M (from UniProt P15151 24-139) (Fc fusion)”: the MFI at 100 nM in test [5] was found to be 22800 MFI; in test [6] it was 18300 MFI.
The substance “CD155 variant IgV-Fc P18S, S65W, S67A, M90V, V95A, L104Q, G111R (from UniProt P15151 24-139) (Fc fusion)” yielded an MFI at 100 nM in test [5] of 2570 MFI.
In the case of “CD155 variant IgV-Fc P18S, T45S, T61K, S65W, S67A, F91S, G111R (from UniProt P15151 24-139) (Fc fusion)”, the MFI at 100 nM in [5] turned out to be 2220 MFI; in test [6] it was 2110 MFI; in test [7] it was 125000 MFI.
With “CD155 variant IgV-Fc P18S, V41A, S42G, T45G, L104N (from UniProt P15151 24-139) (Fc fusion)”, the MFI at 100 nM is 3090 MFI in test [5], 11400 MFI in test [6] and 3820 MFI in test [7].
In turn, “CD155 variant IgV-Fc V9I, Q12K, P18F, S65A, S67V, L79P, L104T, G111R, S112I (from UniProt P15151 21-139) (Fc fusion)” yielded an MFI at 11.1 nM in test [6] of 803 MFI.
Turning to “CD155 variant IgV-Fc V9L, P18T, Q62R, L79P, F91S, L104M, G111R (from UniProt P15151 24-139) (Fc fusion)”, the MFI at 11.1 nM came to 1500 MFI in test [5] and 835 MFI in test [6].
In the case of “Domain 1: CD80 WT / Domain 2: CD86 WT / Fc (Fc fusion)”, the MFI in test [8] worked out at 60300; in test [9] it was 2080.
As to “Domain 1: CD86 WT / Domain 2: CD80 WT / Fc (Fc fusion)”, the MFI in test [8] came to 4950; in test [9], 1520.
“Domain 1: CD86 WT / Domain 2: Nkp30 WT / Fc (Fc fusion)” displayed an MFI in test [10] of 129000.
With “Full length PD-L1 Fc (from UniProt Q9NZQ7 19-239) (Fc fusion)”, the MFI at 50 nM in [11] was found to be 18500. In test [12], the Fold increase over wildtype PD-L1 IgV-Fc was found to be 3.5 fold.
With ICOSL variant N52S/S54P ECD-Fc fusion, the ICOS OD in test [13] was 1.5 OD.
For the substance ICOSL variant N52S/Y152H ECD-Fc fusion, in test [13], the ICOS OD amounted to 0.85 OD and the ICOS OD parental ratio (ratio to WT ICOSL ECD-Fc) turned out to be 0.99. Besides, in [14], the MFI is 68 MFI and the MFI parental ratio (ratio to WT ICOSL ECD-Fc) was determined as 3.78.
Substance “PD-L1 IgV A33D, S75P Fc fusion (SEQ ID NO 1310)” showed an MFI at 50 nM in test [11] of 1790. In [12], the Fold increase over wildtype PD-L1 IgV-Fc was determined as 0.3 fold.
Regarding PD-L1 IgV A33D, S75P, D104G Fc fusion, in [11], the MFI at 50 nM worked out at 251. In test [12], the Fold increase over wildtype PD-L1 IgV-Fc stood at 0 fold.
“PD-L1 IgV I20L, A33D, D43G, N45D, V58A, N78I Fc fusion” registered an MFI at 50 nM in [11] of 80200. Moreover, the Fold increase over wildtype PD-L1 IgV-Fc in [12] stood at 15.3 fold.
As to “PD-L1 IgV I20L, D43G, N45D, N78I Fc fusion”, the MFI at 50 nM in test [11] was 67000. Moreover, the Fold increase over wildtype PD-L1 IgV-Fc in test [12] was 12.8 fold.
As for “PD-L1 IgV I20L, D43G, N45D, V58A, N78I Fc fusion”, the MFI at 50 nM in test [11] worked out at 72700. Further, the Fold increase over wildtype PD-L1 IgV-Fc in test [12] is 13.9 fold.
In turn, “PD-L1 IgV I20L, E27G, D43G, N45D, V58A, N78I Fc fusion” came in with an MFI at 50 nM in test [11] of 69500. In test [12], the Fold increase over wildtype PD-L1 IgV-Fc was determined as 13.3 fold.
“PD-L1 IgV I20L, E27G, N45T, V50A Fc fusion” gave an MFI at 50 nM in test [11] of 29800. For the same substance, the Fold increase over wildtype PD-L1 IgV-Fc in test [12] was 5.7 fold.
In the case of “variant PD-L2 IgV-Fc E44D, V89D, W91R (Fc fusion)”, the MFI at 50 nM in test [15] came out at 614.
For “variant PD-L2 IgV-Fc H15Q, C23S, I86T (Fc fusion)”, the MFI at 50 nM in test [15] is 830.
Take “variant PD-L2 IgV-Fc H15Q, N24S, T47A, Q72H, R76G, V89D (Fc fusion)”: in test [15], the MFI at 50 nM is 32100. Moreover, the Fortebio binding to PD-1-Fc Response Units (Response Units) in test [16] came out at 0.4.
The corresponding values for “variant PD-L2 IgV-Fc H15Q, Q82R, V89D (Fc fusion)” are 49700 and 1.2.
In turn, “variant PD-L2 IgV-Fc H15Q, S67L, I86T (Fc fusion)” showed an MFI at 50 nM in test [15] of 16000.
For the substance “variant PD-L2 IgV-Fc I13V, H15Q, E44V, T47A, Q82R, V89D (Fc fusion)”, the MFI at 50 nM in test [15] amounted to 61000.
The substance “variant PD-L2 IgV-Fc I13V, H15Q, T37A, E44D, S48C, S67L, Q82R, V89D (Fc fusion)” displayed an MFI at 50 nM in [15] of 47600. The substance also registered a Fortebio binding to PD-1-Fc Response Units (Response Units) in test [16] of 1.25.
“variant PD-L2 IgV-Fc I13V, H15Q, T47A, R76G, V89D (Fc fusion)” came in with an MFI at 50 nM in test [15] of 53700. The same substance showed a Fortebio binding to PD-1-Fc Response Units (Response Units) in test [16] of 1.6.
